Assays:
[1] = molecular target: Nα-fluoresceinated hirugen ([F]-hirugen); assay: other fluorescence titration
[2] = molecular target: Catalytically inactive recombinant S195A thrombin mutant (UniProt P00734); assay: other fluorescence titration

Row | Substance | Kd [1] [nM] | increase of [F]-hirugen fluorescence on displacement [2] [%]
1 | Catalytically inactive recombinant S195A thrombin mutant (from UniProt P00734 44-622) (enzyme) | 30 | 
2 | Hirugen (54…*LQ65) (peptide) |  | 65

Source: publication PMC9198058
